# Experimental data taken from IntAct's records for PubMed 26387864.
# B1: Mitochondrial intermembrane space import and assembly protein 40 (Homo sapiens), Q8N4Q1 (parent)
# chain: MSYCRQEGKDRIIFVTKEDHETPSSAELVADDPNDPYEEHGLILPNGNINWNCPCLGGMASGPCGEQFKSAFSCFHYSTEEIKGSDCVDQFRAMQECMQKYPDLYPQEDEDEEEEREKKPAEQAEETAPIEATATKEEEGSS
# B2: Calcium uptake protein 1, mitochondrial (Homo sapiens), Q9BPX6 (parent)
# chain: MFRLNSLSALAELAVGSRWYHGGSQPIQIRRRLMMVAFLGASAVTASTGLLWKRAHAESPPCVDNLKSDIGDKGKNKDEGDVCNHEKKTADLAPHPEEKKKKRSGFRDRKVMEYENRIRAYSTPDKIFRYFATLKVISEPGEAEVFMTPEDFVRSITPNEKQPEHLGLDQYIIKRFDGKKISQEREKFADEGSIFYTLGECGLISFSDYIFLTTVLSTPQRNFEIAFKMFDLNGDGEVDMEEFEQVQSIIRSQTSMGMRHRDRPTTGNTLKSGLCSALTTYFFGADLKGKLTIKNFLEFQRKLQHDVLKLEFERHDPVDGRITERQFGGMLLAYSGVQSKKLTAMQRQLKKHFKEGKGLTFQEVENFFTFLKNINDVDTALSFYHMAGASLDKVTMQQVARTVAKVELSDHVCDVVFALFDCDGNGELSNKEFVSIMKQRLMRGLEKPKDMGFTRLMQAMWKCAQETAWDFALPKQ
# partner: B1 chain
# B3: Calcium uptake protein 1, mitochondrial (Homo sapiens), Q9BPX6 (parent)
# chain: B2 chain
# Variants of: B1
# Details: with micu1_human MICU1, Q9BPX6
row,Variant,effect of a mutation on the interaction
1,C4S;C53S;C55S,disrupting interaction strength
2,C55S,disrupting interaction strength
3,C53S,with no effect

# Variants of: B2
# Details: with mia40_human CHCHD4, Q8N4Q1
row,Variant,effect of a mutation on the interaction
1,C463A,disrupting interaction strength

# Variants of: B3
# Details: with mcu_human MCU
row,Variant,effect of a mutation on the interaction
1,C463S,with no effect
